Legend:
[1] = target: mouse SorCS2 mature extracellular segment (sSorCS2, residues 117-1072) (mouse) (UniProt Q9EPR5); experiment: crystal structure; sSorCS2 mixed with proNGF 1:1.1, 1 mM calcium chloride; proNGF degraded to NGF in the drop; 0.225 M MES/bis-tris pH 6.6; 3.9 Å
[2] = target: NGF in the sSorCS2-NGF crystal (degradation product of the proNGF construct) (UniProt P01139); experiment: as above
[3] = target: pro-nerve growth factor (proNGF, residues 19-241, furin sites changed to AA) (UniProt P01139); experiment: SPR; IBIS MX96; NGF, proNGF and proBDNF amine-coupled to a P-COOH SensEye sensor; wt and mutant sSorCS2 flowed as analyte; 25 mM HEPES pH 7.4, 150 mM NaCl, 0.005 % Tween 20; 25 °C; equilibrium binding, one site saturation model (two site saturation model for proBDNF)
[4] = target: mouse mature nerve growth factor (NGF) (mouse) (UniProt P01139); experiment: as above
mouse mature nerve growth factor (NGF) (mouse), sequence (P01139 122-241): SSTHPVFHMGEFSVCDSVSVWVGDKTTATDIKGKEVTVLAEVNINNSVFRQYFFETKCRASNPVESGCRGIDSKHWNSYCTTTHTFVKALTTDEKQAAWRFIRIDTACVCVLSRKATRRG

mouse SorCS2 mature extracellular segment (sSorCS2, residues 117-1072), Q9EPR5 117-1072 (receptor; other documents disagree on this pair), sequence (Q9EPR5 117-1072): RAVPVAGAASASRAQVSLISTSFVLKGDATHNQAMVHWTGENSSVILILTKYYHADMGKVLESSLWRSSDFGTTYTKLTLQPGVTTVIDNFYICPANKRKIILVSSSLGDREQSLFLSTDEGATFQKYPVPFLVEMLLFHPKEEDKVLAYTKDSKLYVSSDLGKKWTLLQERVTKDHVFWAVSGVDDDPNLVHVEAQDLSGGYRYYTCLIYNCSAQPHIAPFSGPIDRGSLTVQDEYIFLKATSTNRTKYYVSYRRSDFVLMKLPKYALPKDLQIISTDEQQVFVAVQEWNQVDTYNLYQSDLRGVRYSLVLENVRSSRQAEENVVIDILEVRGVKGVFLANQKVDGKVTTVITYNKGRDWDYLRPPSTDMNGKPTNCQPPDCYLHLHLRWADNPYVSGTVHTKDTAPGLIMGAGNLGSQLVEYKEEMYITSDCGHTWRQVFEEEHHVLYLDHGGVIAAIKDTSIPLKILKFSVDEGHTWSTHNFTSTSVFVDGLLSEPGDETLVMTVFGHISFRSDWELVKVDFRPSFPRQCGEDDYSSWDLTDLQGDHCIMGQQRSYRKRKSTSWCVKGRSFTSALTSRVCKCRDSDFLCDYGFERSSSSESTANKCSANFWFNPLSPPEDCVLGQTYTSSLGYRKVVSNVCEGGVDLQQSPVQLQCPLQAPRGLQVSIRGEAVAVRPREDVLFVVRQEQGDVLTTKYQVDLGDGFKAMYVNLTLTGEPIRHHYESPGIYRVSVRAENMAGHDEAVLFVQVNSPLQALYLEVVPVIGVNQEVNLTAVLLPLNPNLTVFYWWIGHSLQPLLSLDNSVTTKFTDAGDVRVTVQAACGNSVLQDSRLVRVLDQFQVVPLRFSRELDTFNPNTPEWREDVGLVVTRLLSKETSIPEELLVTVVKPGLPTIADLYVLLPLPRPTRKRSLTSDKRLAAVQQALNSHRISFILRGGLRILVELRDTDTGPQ
mouse SorCS2 mature extracellular segment (sSorCS2, residues 117-1072) (mouse), sequence (Q9EPR5 117-1072): as above
mouse SorCS2 mature extracellular segment (sSorCS2, residues 117-1072), sequence (Q9EPR5 117-1072): as above

NGF in the sSorCS2-NGF crystal (degradation product of the proNGF construct) (from UniProt P01139 122-241) (ligand)
stoichiometry N (NGF chains per sSorCS2 chain) [1]: 2
stoichiometry N [2]: 2

mouse SorCS2 mature extracellular segment (sSorCS2, residues 117-1072) (from UniProt Q9EPR5 117-1072) (receptor)
Kd [3]: 0.043 µM

mouse SorCS2 mature extracellular segment (sSorCS2, residues 117-1072), Q9EPR5 117-1072 (receptor; other documents disagree on this pair)
Kd [4]: 0.236 µM

From publication PMC6065357
